This note sets out measurements from patent publication US20230399641A1.

Experiment [1] concerns the target No hACE2.
Experiment [2] has as its target No hACE2. This is another data set of the same source.
Experiment [3] concerns the target No hACE2. This is another data set of the same source.

Read-outs that look alike come from different tables or passages of the source.

As for “receptor binding domain (RBD) of wildtype SARS-CoV-2 spike (residues 319-541) (from UniProt P0DTC2 319-541) (ligand)”, the % of cells in the PE-positive (RBD-bound) gate with No hACE2 [1] is 0.17%. In the experiment with No hACE2 [2], “receptor binding domain (RBD) of HCoV-NL63 spike (residues 481-616) (from UniProt Q6Q1S2 481-616) (ligand)” showed a % of cells in the PE-positive (RBD-bound) gate of 0.37%. Take “receptor binding domain (RBD) of SARS-CoV spike (residues 306-527) (from UniProt P59594 306-527) (ligand)”: the % of cells in the PE-positive (RBD-bound) gate with No hACE2 [3] was 0.24%.
